Data reported in doi:10.1101/2024.03.12.584565 (bioRxiv, 2024).

Columns and labels:
Test in all cases: pull-down
Flag-tagged Pds5a = target: T1, Flag-tagged Pds5a (human, UniProt Q29RF7 1-1337)
T1 sequence: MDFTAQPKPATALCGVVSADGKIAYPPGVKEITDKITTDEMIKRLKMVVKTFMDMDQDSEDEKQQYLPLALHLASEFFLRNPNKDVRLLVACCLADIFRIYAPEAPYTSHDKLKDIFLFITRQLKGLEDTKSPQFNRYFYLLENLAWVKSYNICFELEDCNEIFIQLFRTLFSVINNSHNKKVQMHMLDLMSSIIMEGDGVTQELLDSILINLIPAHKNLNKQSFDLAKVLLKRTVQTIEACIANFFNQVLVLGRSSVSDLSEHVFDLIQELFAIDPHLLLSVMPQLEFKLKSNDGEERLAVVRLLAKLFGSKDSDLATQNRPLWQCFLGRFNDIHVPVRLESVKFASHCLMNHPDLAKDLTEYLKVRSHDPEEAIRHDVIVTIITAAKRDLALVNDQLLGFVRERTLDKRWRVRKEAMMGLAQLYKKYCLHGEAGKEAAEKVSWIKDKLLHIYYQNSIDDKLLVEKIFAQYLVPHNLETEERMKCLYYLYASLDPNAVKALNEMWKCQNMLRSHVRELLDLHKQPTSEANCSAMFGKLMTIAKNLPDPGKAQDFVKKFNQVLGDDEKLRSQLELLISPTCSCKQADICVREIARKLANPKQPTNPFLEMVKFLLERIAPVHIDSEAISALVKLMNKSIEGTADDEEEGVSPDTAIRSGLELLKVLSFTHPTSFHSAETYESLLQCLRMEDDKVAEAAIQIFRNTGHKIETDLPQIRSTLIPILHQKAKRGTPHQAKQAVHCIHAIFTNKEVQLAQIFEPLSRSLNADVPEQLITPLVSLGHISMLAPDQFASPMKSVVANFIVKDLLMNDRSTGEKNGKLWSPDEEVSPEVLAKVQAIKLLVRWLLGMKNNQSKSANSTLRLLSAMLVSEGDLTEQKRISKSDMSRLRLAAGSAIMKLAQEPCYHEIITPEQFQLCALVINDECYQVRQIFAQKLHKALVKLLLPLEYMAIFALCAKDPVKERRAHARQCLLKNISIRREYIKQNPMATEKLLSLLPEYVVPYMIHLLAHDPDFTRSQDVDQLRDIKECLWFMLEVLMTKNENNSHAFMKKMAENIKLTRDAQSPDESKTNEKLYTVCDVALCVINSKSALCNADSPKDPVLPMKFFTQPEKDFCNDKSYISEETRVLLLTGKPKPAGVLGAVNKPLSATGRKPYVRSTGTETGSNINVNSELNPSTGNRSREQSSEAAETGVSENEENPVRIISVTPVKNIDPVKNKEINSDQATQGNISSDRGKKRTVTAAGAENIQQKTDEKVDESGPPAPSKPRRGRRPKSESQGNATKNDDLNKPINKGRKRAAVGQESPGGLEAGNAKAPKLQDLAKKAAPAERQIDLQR

[1] = target: T2, Flag-tagged Pds5b, co-expressed with Nek2aΔMR (human, UniProt Q9NTI5 1-1447)
T2 sequence: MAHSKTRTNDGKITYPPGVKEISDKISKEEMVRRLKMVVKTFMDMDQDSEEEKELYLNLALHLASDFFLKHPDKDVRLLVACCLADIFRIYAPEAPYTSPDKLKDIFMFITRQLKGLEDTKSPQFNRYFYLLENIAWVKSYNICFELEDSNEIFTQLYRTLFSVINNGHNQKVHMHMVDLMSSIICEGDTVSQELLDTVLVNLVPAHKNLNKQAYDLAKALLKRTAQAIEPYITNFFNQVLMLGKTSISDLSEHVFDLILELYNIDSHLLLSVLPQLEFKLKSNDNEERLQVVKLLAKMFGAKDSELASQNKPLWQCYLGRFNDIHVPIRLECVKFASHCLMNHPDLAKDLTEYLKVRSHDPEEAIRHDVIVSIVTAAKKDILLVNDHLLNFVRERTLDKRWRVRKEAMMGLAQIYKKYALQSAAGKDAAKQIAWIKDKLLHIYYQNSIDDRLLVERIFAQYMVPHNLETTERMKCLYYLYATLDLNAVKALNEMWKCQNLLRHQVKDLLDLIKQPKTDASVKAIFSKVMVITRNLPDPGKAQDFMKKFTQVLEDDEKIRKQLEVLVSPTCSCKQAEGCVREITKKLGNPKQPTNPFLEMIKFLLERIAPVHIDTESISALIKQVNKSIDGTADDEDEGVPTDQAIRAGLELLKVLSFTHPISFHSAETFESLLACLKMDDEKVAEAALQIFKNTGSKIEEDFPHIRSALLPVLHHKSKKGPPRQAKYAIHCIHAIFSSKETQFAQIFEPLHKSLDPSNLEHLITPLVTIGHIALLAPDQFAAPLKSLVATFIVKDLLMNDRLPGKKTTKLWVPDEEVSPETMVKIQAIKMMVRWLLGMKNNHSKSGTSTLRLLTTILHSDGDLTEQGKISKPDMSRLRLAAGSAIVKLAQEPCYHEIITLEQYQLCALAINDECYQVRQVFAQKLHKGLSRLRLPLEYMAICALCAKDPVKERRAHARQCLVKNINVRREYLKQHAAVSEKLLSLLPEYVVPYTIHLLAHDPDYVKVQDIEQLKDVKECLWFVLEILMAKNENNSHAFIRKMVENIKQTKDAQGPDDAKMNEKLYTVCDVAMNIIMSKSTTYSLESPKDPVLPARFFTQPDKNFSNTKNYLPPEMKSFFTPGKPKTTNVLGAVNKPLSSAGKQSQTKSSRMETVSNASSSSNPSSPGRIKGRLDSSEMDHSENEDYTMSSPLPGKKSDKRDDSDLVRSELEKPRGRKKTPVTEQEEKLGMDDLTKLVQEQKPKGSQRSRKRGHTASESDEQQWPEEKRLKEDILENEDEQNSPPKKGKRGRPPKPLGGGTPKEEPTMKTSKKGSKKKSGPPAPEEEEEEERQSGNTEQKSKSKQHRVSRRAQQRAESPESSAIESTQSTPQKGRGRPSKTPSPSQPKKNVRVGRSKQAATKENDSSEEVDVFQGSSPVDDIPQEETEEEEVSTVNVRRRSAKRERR

[2] = target: T3, Flag-tagged Pds5b-WT, treated with Nek2a and Cdk1/2-cyclin A2 in vitro (human, UniProt Q9NTI5 1-1447)
T3 sequence: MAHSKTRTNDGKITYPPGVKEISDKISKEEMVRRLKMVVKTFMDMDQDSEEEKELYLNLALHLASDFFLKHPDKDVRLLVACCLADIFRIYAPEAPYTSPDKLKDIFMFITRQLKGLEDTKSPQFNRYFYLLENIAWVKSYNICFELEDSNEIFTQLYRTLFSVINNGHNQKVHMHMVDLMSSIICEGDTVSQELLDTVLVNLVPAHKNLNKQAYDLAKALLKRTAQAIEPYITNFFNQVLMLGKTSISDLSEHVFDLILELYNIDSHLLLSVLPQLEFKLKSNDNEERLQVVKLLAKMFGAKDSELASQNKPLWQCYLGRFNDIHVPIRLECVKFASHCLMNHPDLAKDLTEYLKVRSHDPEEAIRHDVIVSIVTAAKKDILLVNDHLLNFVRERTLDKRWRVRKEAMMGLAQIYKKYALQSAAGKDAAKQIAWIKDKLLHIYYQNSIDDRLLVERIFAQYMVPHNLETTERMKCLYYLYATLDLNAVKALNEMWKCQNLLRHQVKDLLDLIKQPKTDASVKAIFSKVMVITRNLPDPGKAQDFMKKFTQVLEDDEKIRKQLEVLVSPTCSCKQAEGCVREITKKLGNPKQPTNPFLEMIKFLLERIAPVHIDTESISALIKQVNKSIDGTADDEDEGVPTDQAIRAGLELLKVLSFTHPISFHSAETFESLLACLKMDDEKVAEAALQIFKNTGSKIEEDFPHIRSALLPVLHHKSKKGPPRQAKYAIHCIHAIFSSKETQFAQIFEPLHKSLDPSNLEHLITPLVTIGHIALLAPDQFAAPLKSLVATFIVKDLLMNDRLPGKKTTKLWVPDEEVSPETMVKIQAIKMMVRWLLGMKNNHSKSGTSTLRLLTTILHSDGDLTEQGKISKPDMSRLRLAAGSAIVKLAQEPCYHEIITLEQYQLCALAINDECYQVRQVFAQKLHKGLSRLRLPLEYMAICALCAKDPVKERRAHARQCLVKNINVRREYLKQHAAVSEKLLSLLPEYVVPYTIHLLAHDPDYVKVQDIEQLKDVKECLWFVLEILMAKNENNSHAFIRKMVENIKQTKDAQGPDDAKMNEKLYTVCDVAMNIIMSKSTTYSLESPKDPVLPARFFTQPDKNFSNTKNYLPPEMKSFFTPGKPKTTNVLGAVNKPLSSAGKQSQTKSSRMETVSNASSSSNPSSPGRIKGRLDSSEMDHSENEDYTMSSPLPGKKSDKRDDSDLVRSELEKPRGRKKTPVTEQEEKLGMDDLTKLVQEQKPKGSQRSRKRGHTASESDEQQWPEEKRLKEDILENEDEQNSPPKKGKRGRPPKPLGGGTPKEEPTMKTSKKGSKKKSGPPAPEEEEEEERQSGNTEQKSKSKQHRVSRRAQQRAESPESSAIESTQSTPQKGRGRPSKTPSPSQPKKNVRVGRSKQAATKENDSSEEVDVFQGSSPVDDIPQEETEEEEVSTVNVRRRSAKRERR

Measured: binding result

B1: recombinant human Wapl (natural protein)
chain: MTSRFGKTYSRKGGNGSSKFDEVFSNKRTTLSTKWGETTFMAKLGQKRPNFKPDIQEIPKKPKVEEESTGDPFGFDSDDESLPVSSKNLAQVKCSSYSESSEAAQLEEVTSVLEANSKISHVVVEDTVVSDKCFPLEDTLLGKEKSTNRIVEDDASISSCNKLITSDKVENFHEEHEKNSHHIHKNADDSTKKPNAETTVASEIKETNDTWNSQFGKRPESPSEISPIKGSVRTGLFEWDNDFEDIRSEDCILSLDSDPLLEMKDDDFKNRLENLNEAIEEDIVQSVLRPTNCRTYCRANKTKSSQGASNFDKLMDGTSQALAKANSESSKDGLNQAKKGGVSCGTSFRGTVGRTRDYTVLHPSCLSVCNVTIQDTMERSMDEFTASTPADLGEAGRLRKKADIATSKTTTRFRPSNTKSKKDVKLEFFGFEDHETGGDEGGSGSSNYKIKYFGFDDLSESEDDEDDDCQVERKTSKKRTKTAPSPSLQPPPESNDNSQDSQSGTNNAENLDFTEDLPGVPESVKKPINKQGDKSKENTRKIFSGPKRSPTKAVYNARHWNHPDSEELPGPPVVKPQSVTVRLSSKEPNQKDDGVFKAPAPPSKVIKTVTIPTQPYQDIVTALKCRREDKELYTVVQHVKHFNDVVEFGENQEFTDDIEYLLSGLKSTQPLNTRCLSVISLATKCAMPSFRMHLRAHGMVAMVFKTLDDSQHHQNLSLCTAALMYILSRDRLNMDLDRASLDLMIRLLELEQDASSAKLLNEKDMNKIKEKIRRLCETVHNKHLDLENITTGHLAMETLLSLTSKRAGDWFKEELRLLGGLDHIVDKVKECVDHLSRDEDEEKLVASLWGAERCLRVLESVTVHNPENQSYLIAYKDSQLIVSSAKALQHCEELIQQYNRAEDSICLADSKPLPHQNVTNHVGKAVEDCMRAIIGVLLNLTNDNEWGSTKTGEQDGLIGTALNCVLQVPKYLPQEQRFDIRVLGLGLLINLVEYSARNRHCLVNMETSCSFDSSICSGEGDDSLRIGGQVHAVQALVQLFLERERAAQLAESKTDELIKDAPTTQHDKSGEWQETSGEIQWVSTEKTDGTEEKHKKEEEDEELDLNKALQHAGKHMEDCIVASYTALLLGCLCQESPINVTTVREYLPEGDFSIMTEMLKKFLSFMNLTCAVGTTGQKSISRVIEYLEHC
binds: all assays above
